This assay concerns the target NKG2D ligands. The assay is described as follows: cell-based or functional assay.

B1: chimeric NKG2D receptor (NKG2D.ζ), expressed on primary human NK cells (receptor)
chain: MRVKFSRSAEPPAYQQGQNQLYNELNLGRREEYDVLDKRRGRDPEMGGKPRRKNPQEGLYNELQKDKMAEAYSEIGMKGERRRGKGHDGLYQGLSTATKDTYDALHMQALPPRGWIRGRRSRHSWEMSEFHNYNLDLKKSDFSTRWQKQRCPVVKSKCRENASPFFFCCFIAVAMGIRFIIMVAIWSAVFLNSLFNQEVQIPLTESYCGPCPKNWICYKNNCYQFFDESKNWYESQASCMSQNASLLKVYSKEDQDLLKLVKSYHWMGLVHIPTNGSWQWEDGSILSPNLLTIIEMQKGDCALYASSFKGYIENCSTPNTYICMQRTV
Take B1: the cytotoxicity against autologous MDSCs, 4-hour chromium-release assay, E:T ratio of 5:1 came to 35%; the cytotoxicity against wild-type K562 in a 4-hour cytotoxicity assay, 2:1 E:T ratio was 79.2%; the lysis of autologous immature dendritic cells, E:T ratio of 20:1 was 4.2%.
